Laboratory results from article PMC2266617.

Target: Kv4.2-T1 domain (tetramerization domain of Kv4.2) with a poly-His tag at the NH2 terminus
Test: SEC

Chain of Kv4.2-T1 domain (tetramerization domain of Kv4.2) with a poly-His tag at the NH2 terminus (Q63881 whole entry, the tested form may be a part): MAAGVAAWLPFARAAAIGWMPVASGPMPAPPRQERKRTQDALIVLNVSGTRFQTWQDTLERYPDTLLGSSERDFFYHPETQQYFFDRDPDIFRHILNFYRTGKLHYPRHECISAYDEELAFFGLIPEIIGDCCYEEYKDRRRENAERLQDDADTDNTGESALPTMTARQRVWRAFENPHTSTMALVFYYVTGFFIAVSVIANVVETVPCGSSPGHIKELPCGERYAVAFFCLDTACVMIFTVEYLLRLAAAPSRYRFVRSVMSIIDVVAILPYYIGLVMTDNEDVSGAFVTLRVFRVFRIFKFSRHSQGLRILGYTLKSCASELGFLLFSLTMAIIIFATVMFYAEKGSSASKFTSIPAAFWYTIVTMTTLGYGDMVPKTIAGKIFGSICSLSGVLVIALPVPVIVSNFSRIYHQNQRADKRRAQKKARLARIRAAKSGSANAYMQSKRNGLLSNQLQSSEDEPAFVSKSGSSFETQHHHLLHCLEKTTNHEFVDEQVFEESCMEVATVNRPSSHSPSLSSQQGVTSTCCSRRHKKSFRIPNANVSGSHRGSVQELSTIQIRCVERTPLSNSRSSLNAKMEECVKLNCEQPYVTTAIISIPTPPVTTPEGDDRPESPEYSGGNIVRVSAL

## Kv4.2-T1 domain (tetramerization domain of Kv4.2) with a poly-His tag at the NH2 terminus (domain or fragment)
  stoichiometry N: 4
